{"source": "patent US20210147572A1", "about": "“ANTIBODIES AND METHODS OF USE THEREOF” (AbeXXa Biologics, Inc., priority 2017, published 2021)", "key": {"[1]": {"target": "T1, HLA-E molecules expressed in PDX lung tumor tissue (Homo sapiens, UniProt P13747)", "T1 construct": "tissue Crown Biosciences PDX model LU5139; host or cells: patient-derived xenograft lung tumour tissue", "experiment": "LC/MS/MS validation of peptides eluted from HLA-E of PDX lung tumor tissue", "conditions": "PDX model LU5139, HLA-E affinity column 4D12", "experimental": "FIG. 6 exemplifies a validation strategy used for cancer specific HLA-E-peptide targets. 1) Snap-frozen tumor tissue isolated from patient-derived xenograft (PDX) models, patient biopsies or freshly isolated hematological cancer cells are stored frozen in liquid nitrogen. 2) Sample of material is isolated and resuspended in 5 to 10 ml of lysis buffer and homogenized for 10 seconds on ice. After lhr incubation on ice, the sample is centrifuged for 20 min at 40,000 g. 3) An affinity column is prepared using antibody 4D12 or another antibody to HLA-E. The purified anti-HLA-E antibodies are coupled to a CN-Br-activated sepharose beads. The clarified supernatant is then applied to the affinity column. The column is washed with PBS, followed by a second wash with water and the sample eluted with 0.1M glycine pH 3.0. 4) Collected sample is immediately neutralized with addition of NH4HCO3. […]\nPDX lung tumor tissue was purchased from Crown Biosciences and used for extraction of HLA-E-peptide complexes. […] An aliquot of sample supernatant was removed and protein concentration was determined by BCA assay. […]\nPeptide mixture samples underwent solid-phase extraction cleanup with an Oasis HLB elution plate (Waters) and the resulting samples were analyzed by LC/MS/MS, using an Orbitrap Fusion Lumos mass spectrometer (Thermo Electron) coupled to an UltiMate™ 3000 RSLC-Nano liquid chromatography system (Dionex). […]"}, "HLA-E*0103": {"target": "HLA-E*0103 (Homo sapiens, UniProt P13747)", "experiment": "HLA-E*0103 peptide binding and refolding into monomer", "assay_type": "biochemical"}, "[2]": {"target": "T2, HLA-E*0103 extracellular domain with beta-2-microglobulin (recombinant, before peptide loading) (human)", "experiment": "peptide binding and refold into monomer complex"}, "[3]": {"target": "T2, HLA-E*0103 extracellular domain with …", "experiment": "in vitro refold, Superdex 75 size exclusion"}}}
{"molecule": "GLADKVYFL", "values": [{"measurement": "Peptide detected in lung PDX tissue by LC/MS/MS", "setting": "[1]", "result": "isolated from HLA-E molecules expressed in PDX lung tumor tissue"}]}
{"molecule": "YLLPAIVHI [RNA Helicase p68 peptide]", "values": [{"measurement": "HLA-E*0103 peptide binding, refold into stable monomer complexes", "setting": "HLA-E*0103", "result": "successfully refold HLA-E*0103/peptide into stable monomer complexes"}]}
{"molecule": "YLLPAIVHI", "note": "[peptide YLLPAIVHI (RNA Helicase p68)]", "values": [{"measurement": "binding result", "setting": "[2]", "result": "binds"}]}
{"molecule": "GLADKVYFL", "note": "[peptide GLADKVYFL (CAD protein)]", "values": [{"measurement": "binding result", "setting": "[3]", "result": "binds"}]}
